Key:
[1] = biological target: T1, human RAGE-Fc fusion protein (human, UniProt Q15109 23-344); assay: ligand competition ELISA, panel Blocks hRAGE-Fc interaction with S100-A; blocked ligand S100-A
T1 construct: also called hRAGE-Fc; huRAGE-Fc; not shown: Fc domain of human IgG

[2] = biological target: T1, human RAGE-Fc fusion protein; assay: direct binding ELISA, coated hRAGE-Fc
Protocol: (§1) Antibodies were purified from hybridoma supernatants using standard procedures. Purified antibodies were evaluated for binding to soluble forms of RAGE with the use of ELISA. […] After washing and blocking with PBS containing 1% BSA and 0.05% Tween-20, 100 ul of sample (samples were in several forms: diluted immune serum, hybridoma supernatants, or purified antibodies, as indicated) was added and incubated for 1 hour at room temperature. The plates were washed with PBS, pH 7.2 and bound anti-RAGE antibodies were detected with the use of peroxidase-conjugated goat, anti-mouse IgG (H+L) (IgG) (Pierce, Rockford, Ill.) followed by incubation with the substrate TMB (BioFX Laboratories Owings Mills, Md. Laboratories). Absorbance values were determined at 450 nm in a spectrophotometer. The concentrations of monoclonal antibodies were determined with the use of peroxidase-labeled goat, anti-mouse IgG (Fcγ) (Pierce Rockford, Ill.) and a standard curve was generated by a purified, isotype-matched mouse IgG.

[3] = biological target: T2, baboon RAGE (baboon (Papio cyanocephalus), UniProt Q15109 23-404 (human entry)); assay: cell-based ELISA, 293 cells transfected with baboon RAGE
T2 construct: On transfected 293 cells or endogenous in baboon lung sections; also called 293-baboon RAGE; RAGE in baboon lung
T2 chain: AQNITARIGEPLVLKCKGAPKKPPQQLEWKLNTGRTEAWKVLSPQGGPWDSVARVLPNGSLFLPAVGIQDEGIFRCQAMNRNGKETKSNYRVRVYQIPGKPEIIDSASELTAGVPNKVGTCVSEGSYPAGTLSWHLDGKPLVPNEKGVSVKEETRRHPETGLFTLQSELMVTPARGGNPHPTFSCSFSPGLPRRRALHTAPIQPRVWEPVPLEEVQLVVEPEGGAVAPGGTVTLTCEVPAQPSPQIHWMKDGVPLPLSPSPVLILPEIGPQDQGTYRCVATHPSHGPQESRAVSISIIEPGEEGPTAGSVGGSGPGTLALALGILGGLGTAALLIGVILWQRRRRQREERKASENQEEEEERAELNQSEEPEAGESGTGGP
Protocol: (§2) Human embryonic kidney 293 cells (American Tissue Type Culture, Manassas, Va.) cells were plated at 5×10⁶ cells per 10 cm² tissue culture plate and cultured overnight at 37° C. The next day cells were transfected with RAGE expression plasmids (pAdori1-3 vector encoding mouse, human, baboon, cynomologus monkey or rabbit RAGE) using LF2000 reagent (Invitrogen, Carlsbad Calif.) at a 4:1 ratio of reagent to plasmid DNA using the manufacturers protocol. Cells were harvested 48 hrs post-transfection using trypsin, washed once with phosphate buffered saline (PBS), then suspended in growth media without serum at a concentration of 2×10⁶ cells/ml.
(§3) Primary antibodies at 1 μg/ml were serially diluted at 1:2 or 1:3 in PBS containing 1% bovine serum albumin (BSA) in a 96-well plate. RAGE-transfected 293 cells or control parental 293 cells (50 μl) at 2×10⁶ cells/ml in serum-free growth medium were added to U-bottom 96 well plate for a final concentration of 1×10⁵ cells/well. The cells were centrifuged at 1600 rpm for 2 minutes. The supernatants were gently discarded by hand with a one-time swing and the plate was patted gently to loose the cell pellet. […] The cells were centrifuged and the supernatants are transferred to a fresh plate and read at 450 nm (Soft MAX pro 4.0, Molecular Devices Corporation, Sunnyvale, Calif.).

[4] = biological target: T1, human RAGE-Fc fusion protein; assay: ligand competition ELISA, panel Blocks hRAGE-Fc interaction with A-beta; blocked ligand amyloid beta 1-42 peptide
[5] = biological target: T3, human RAGE, full length (human, UniProt Q15109 23-404); assay: cell-based ELISA, 293 cells transfected with human RAGE
T3 construct: Expressed on 293 or CHO cells, or endogenous in human lung sections; also called hRAGE; cell-surface hRAGE
Protocol: as §2, §3

[6] = biological target: T1, human RAGE-Fc fusion protein; assay: ligand competition ELISA, panel Blocks hRAGE-Fc interaction with S100-B; blocked ligand S100-B
[7] = biological target: T4, murine RAGE-strep tag fusion protein (mouse, UniProt Q62151 23-343); assay: ELISA, mRAGE-strep
T4 construct: also called mRAGE-strep; mRAGE-SA
T4 chain: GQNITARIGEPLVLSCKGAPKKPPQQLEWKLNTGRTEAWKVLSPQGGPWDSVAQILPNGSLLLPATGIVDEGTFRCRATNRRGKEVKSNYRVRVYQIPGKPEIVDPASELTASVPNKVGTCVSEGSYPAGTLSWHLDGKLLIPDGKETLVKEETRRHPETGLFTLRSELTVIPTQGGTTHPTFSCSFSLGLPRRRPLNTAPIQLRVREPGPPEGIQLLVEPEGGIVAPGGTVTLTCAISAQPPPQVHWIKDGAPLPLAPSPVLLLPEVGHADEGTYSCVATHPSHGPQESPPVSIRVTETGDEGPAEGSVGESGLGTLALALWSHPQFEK

[8] = biological target: T5, human RAGE V-region-Fc fusion protein (human, UniProt Q15109 23-118); assay: direct binding ELISA, coated hRAGE V-region-Fc
T5 construct: also called hRAGE V-domain-Fc; hRAGE-V-Fc (CM); not shown: Fc domain of human IgG
Protocol: as §1

IC50 (read off the curve) [1]: ~0.07 µg/mL
EC50 [2]: 0.3 nM
EC50 [3]: ~1.33 nM
IC50 (read off the curve) [4]: ~0.2 µg/mL
EC50 [5]: ~0.84 nM
IC50 (read off the curve) [6]: ~0.1 µg/mL
binding result [7]: binds
EC50 [8]: 0.1 nM
B1: XT-M4 (antibody, rat IgG2b, V domains shown)
VH: EVQLVESGGGLVQPGRSLKLSCVVSGFTFNNYWMTWIRQTPGKGLEWVASINNSGDNTYYPDSVKDRFTISRDNAKSTLYLQMNSLRSEDTATYYCTRGGDITTGFDYWGQGVMVTVSS
VL: DIQMTQSPSSMSVSLGDTITITCRASQDVGIYVNWFQQKPGKSPRRMIYRATNLADGVPSRFSGSRSGSIYSLTISSLESEDVADYHCLEFDEHPLTFGSGTKVEIK
notes: also called 1mRAGEP3/10; rat XT-M4
